Results on one protein are retold here after US20170304407.

This series has as its target prothrombin.

B1: oscutarin C (OsPA), Group C prothrombin activator purified from Oxyuranus scutellatus (Coastal Taipan) venom, preparation 17 Apr. 2012 (protein)
chain 1: ANSLYEEFRSGNIERECIEERCSKEEAREVFEDDEKTETFWNVYVDGDQCSSNPCHYRGTCKDGIGSYTCTCLSGYEGKNCERVLYKSCRVDNGNCWHFCKPVQNDIQCSCAEGYLLGEDGHSCVAGGNFSCGRNIKTRNKREASLPDFVQSQNAILLKKSDNPSPDIRIVNGMDCKLGECPWQAVLVDEKEDAFCGGTILSPIYVLTAAHCINQTKMISVVVGEINISRKNPGRLLSVDKIYVHQKFVPPKKGYEFYEKFDLVSYDYDIAILQMKTPIQFSENVVPACLPTADFANQVLMKQDFGIVSGFGRIFEKGPQSKTLKVLKVPYVDRHTCMLSSESPITPTMFCAGYDTLPRDACQGDSGGPHITAYRDTHFITGIVSWGEGCAQTGKYGVYTKVSKFILWIKRIMRQKLPSTESSTGRL
chain 2: AQLREYRLAAQLEDWDYNPQPEELSRLSESDLTFKKIVYREYELDFKQEKPRDELSGLLGPTLRGEVGDSLIIYFKNFATQPVSIHPQSAVYNKWSEGSSYSDGTSDVERLDDAVPPGQSFKYVWNITAEIGPKKADPPCLTYAYYSHVNMVRDFNSGLIGALLICKEGSLNADGAQKFFNREYVLMFSVFDESKNWYRKPSLQYTINGFANGTLPDVQACAYDHISWHLIGMSSSPEIFSVHFNGQTLEQNHYKVSTINLVGGASVTANMSVSRTGKWLISSLVAKHLQAGMYGYLNIKDCGNPDTLTRKLSFRERRRIMKWEYFIAAEEITWDYAPEIPSSVDRRYKAQYLDNFSNFIGKKYKKAVFRQYEDSNFTKPTYAIWPKERGILGPVIKAKVRDTVTIVFKNLASRPYSIYVHGVSVSKDAEGAVYPSDPKENITHGKAVEPGQVYTYKWTVLDTDEPTVKDSECITKLYHSAVDMTRDIASGLIGPPLVCKRKALSIRGVQNKADVEQHAVFAVFDENKSWYLEDNIKKYCSNPSSVKKDDPKFYKSNVMYTLNGYASDRTEVWGFHQSEVVEWHLTSVGTVDEIVPVHLSGHTFLSKGKHQDILNLFPMSGESATVTMDNLGTWLLSSWGSCEMSNGMRLRFLDANYDDEDEGNEEEEEDDGDIFADIFNPPEVVIKKEEVPVNFVPDPESDALAKELGLFDDEDNPKQSRSEQTEDDEEQLMIASMLGLRSFKGSVAEEELKHTALALEEDAHASDPRIDSNSAHNSDDIAGRYLRTINRRNKRRYYIAAEEVLWDYSPIGKSQVRSLPAKTTFKKAIFRSYLDDTFQTPSTGGEYEKHLGILGPIIRAEVDDVIEVQFRNLASRPYSLHAHGLLYEKSSEGRSYDDNSPELFKKDDAIMPNGTYTYVWQVPPRSGPTDNTEKCKSWAYYSGVNPEKDIHSGLIGPILICQKGMIDKYNRTIDIREFVLFFMVFDEEKSWYFPKSDKSTCEEKLIGVQSRHTFPAINGIPYQLQGLMMYKDENVHWHLLNMGGPKDVHVVNFHGQTFTEEGREDNQLGVLPLLPGTFASIKMKPSKIGTWLLETEVGENQERGMQALFTVIDKDCKLPMGLASGIIQDSQISASGHVGYWEPKLARLNNTGMFNAWSIIKKEHEHPWIQIDLQRQVVITGIQTQGTVQLLKHSYTVEYFVTYSKDGQNWITFKGRHSKTQMHFEGNSDGTTVKENHIDPPIIARYIRLHPTKFYNTPTFRIELLGCEVEGCSVPLGMESGAIKDSEITASSYKKTWWSSWEPFLARLNLKGRTNAWQPKVNNKDQWLQIDLQHLTKITSIITQGATSMTTSMYVKTFSIHYTDDNSTWKPYLDVRTSMEKVFTGNINSDGHVKHFFNPPILSRFIRIIPKTWNQYIALRIELFGCEVF
Consider B1, for which the “rate of prothrombin activation in the S-2238 two-stage assay (thrombin produced against sampling time)” value is reported as “(eg) (9.98e-6 umol/min)” and the “specific activity of the prothrombin activator (rate of thrombin production against OsPA concentration)” value is recorded as “(eg) (5.0e-3 units/mg)”.
